Data published in the DeepSol protein solubility set.

Assay: soluble on expression in E. coli; label from the status in PepcDB or PDB records

Sequence	soluble on expression in E. coli
MTTKNKRVLQKCAYREEFKGDMERSTAATSKLPLEVELSRNSKGLIIILSSPSGTGKSSLAKALLKIDNNLRLSISATTRKPRLGEVEGINYYFKTGLEFEELVKQNKFLEYAKIYDNYYGTPKEYVEMLLNQGLDVLFDIDWQGARSIKKNATNVVTIFVLPPNIEVLEQRLRNRATDNEEAIKLRMQLAQNEISHANEYDYVVTNDDFDRTLKKIHAIIVAARDKAF	soluble
MTTKPPIERIMYIELRTSLEMFRSDLVDLEALANAAKEALEQLPYIPKNPCGKGEDDDPLSGPESALRTGRLCGLVCCTATAAEGALSTCSKLIDWAYANEPEGVDDAVLADDIDGDDDDDDEGSGSNGANGGGGANGSGNGSNGSGNGGPPDGGVESAAPAGSTELAEARPSRGGIALDLPPAHAPHGAPVA	not soluble
MTTLYLASGSPRRQELLTQLGFSFEQVVPGIEEQRRAQESAQQYVVRLAREKAQAGVALVPRDLPVLGADTIVVLNGEVLEKPRDAAHAAEMLRLLSGNTHQVMTAVALADSQQTLDCLVVTEVTFRTLSAQDITGYVASGEPLDKAGAYGIQGRGGCFVRKINGSYHAVVGLPLVETYELLSHFNALRDKRDKHDG	not soluble
MTTNRETVLSMAKRKRSVVAINASGWRSNGEVMGLQIKDGVLYKDYDAAGYTGAEACVFFDDGTMKVYGNREVDADILISKGARNSFAFGIWLVKDSKPRTAQMTTWADLNVKHPRQAIGQRSDGTLVIITVDGRSLRSSGITAYDMPSLFLSEGCINAFLLDGGGSSQTAVEGKYINNISDGIERAVVDTLTISYPDDLEHHHHHH	not soluble
MTTNYVLRKPWRWLTISKDMMINEQIRAREVRLVGANGDQLGIKSRNDALDLAANLNLDLVLVAPNAKPPVCRIMDYGKFRFEQQKKEKEQRKNQKVISMKEVRLSPTIDEHDFNTKLRNAIKFLEKGDKVKASIRFKGRAITHKEIGQRVLDRFSEACAEVSTIESKPKMEGRSMFLVLAPKNDK	not soluble
MTTPAVKMVVAYVTAPSKEVAMTVARTTVTEALAACANVIPEVTSVYKWQGKIEEDQEHVVILKTVESKVEELSARVRSLHPAETPCFFTLAIDKITPDFGGWIVDSTNSSTAKH	soluble
MTTPNPLAKTKGAGTTFWMYTGNGDAFANPLSDTDWLRLAMVKDLQPGEMTADAEDDTYLDDEDADWKTTTQGQKSVGDTSATLACRPGDSGQKKLVQLFDSGEVCAFRIKYPNGTVDVFRGWLSSLGKTIASKDVMTRTVKISGVGRPYLAEEGTETVGVTGLTVAPASVSVKAGATTTLTFTVKPDGASDKAISVHSSDPQTASVTLSGLVATVKGVKQGSVSIVGMTSDGEFVAVAAVTVSAP	not soluble
MTTQFKPELLSPAGSLKNMRYAFAYGADAVYAGQPRYSLRVRNNEFNHANLKIGIDEAHSLGKKFYVVVNIAPHNSKLKTFIKDLQPVIDMKPDALIMSDPGLIMLVRENFPNIDIHLSVQANAVNWATVKFWKQMGLTRVILSRELSIDEIAEIRQQVPDIELEIFVHGALCMAYSGRCLLSGYINKRDPNQGTCTNACRWEYKMEEGTTDDVGNIVPKIDPAQQIEVKNVAPTLGEGAVTDKVFLYTESQKPDEQMTAFEDKHGTYFMNSKDLRAVQHVEKLTALGVHSLKIEGRTKSFYYCARTAQVYRKAIDDAAAGKPFDESLMDTLESLAHRGYTEGFLRRHTHDEYQNYEYGYSISDRQQFVGEFTGKRNEQGMAEVAVKNKFLLGDNVEMMTPQGNINFKIEKMLNRKNETVDAALGDGHFVFLNVPQDINLNYALLMRNLVNTNTRNPHSN	not soluble
MTTQTIDSAPHATWFVGASYGGTDDQMPRFLAEGIWENGYDDKLLEVVRSMRPGERIAIKSSYTRKHGLPFDSRGRAVSVMGIKAVGTITENLNDGKRVKVDWAKVEPVREWYFYTHRATIWRVLPGEWMNDALIAFAFDGKPQDVDRFRNEPFWRERYGTTSPEKQRFEWTDFYEAVAEKLLAHADDRTPLIEGIHEIASRVPGLTYLQDKFPDGTSGPLRDICPFTTMGTFNRSMTDANRKTLAGELAKLLGVTVPVPPSFEGIPVLNNQRSWFFAYADKRGAGDIDALWKVFVAASKMVDGDQLDTRDAFIRAYDEATQVWGVAWNLSTGLYWAHPWEFLTLDSQSRHYINKRLGLNVAISGQQGPCDGRAYLKLLDDLRSRFGEDGYPVHSFPDLSLASWMYKDPVDEPVPAGDIGTNAGAEQETEGEVREAFQVAAPIVPYSVEDILKDGCFLERAEIDRLLDRLRTKKNLILQGPPGTGKTWLAKRLAFALMGQKDDSKVRAVQFHPNLSYEDFVRGWRPTGEGKLSLADGVFMEAIKAASKDPSSKFVVVIEEINRGNPAQIFGELLTLLEAGKRTPNEALELCYPDADGKRRPVHIPENLYVVGTMNIADRSLALVDLALRRRFAFVGLEPRLGQVWRDWVVKECAVDPGLVADIERRIAELNDQIAADARLGKQFRIGHSYVTPAHRLEAGDTKKWFLQVVETEIGPLLDEYWFDAPDEAQKAIARLTQGWLEHHHHHH	soluble
MTTVSKPDESSFDVRTLSMKTCGSRLCVGFCYCSGVVKFRKSESVGTVDIPFPSLGACPSLTLSMSPNMNFSSRMALAPTSPMKRSKSVPNILSGEYPNSVCVVANSIDENGDAGVDVTDCASTKPLVLGKDNYQDNYWDSQETNHRNADMKTPKKKVGKISKFVNICVSELKKFKNPNSGVTSIDGVERLKKEIAPLPSSPLKLTSTSTIEFQSTVTSSSPIMRSRETTSTIQRSKIISSTTKVMSDMLMDKEGKDSEISENSINCSTNLAVNKMGDVPSLSQFEDADGLQKKLTEPVELPAKSQEVYQYDVSASPAKEDLKWSTLKKIDLIVPSFRSKKRGLVAHLKSSPISKISYDGSPSKQVGVLDGEITDDGRIDSGPAKAIIPTSTENIIMPKELNISDIGEKAEVSRGLRKRHLEDSSTPSSRGPSTPAKLITDEDATNKKKRVLGKNMVDNKASSPNKEHILPIDQLNNSSAMGISSENTAPMELKATGNDPVSDGGGYKFLVTAETGRKFDEFRAKRQRLRESWMENKSPTSNKNVQTTAVTSGFQSNEQAPENLPATMECLNKEAATTPMNDNRALLTEVGPEAALAEPKLGKPLLPVENVLQYSKSPSKTAVTNKPTKTVLKANFNAPIGKINSDISFFTPKKVFGKSEYQYGPSMGKLIQMMGTGTPKKVLPEFGSSSKTALFSPRKEEHCAGAPRGSWKIAKMRVRTKLSNFYPSSRSKNSQQIRGKWLGQNIVQFSGHHSMIAQSANDKHGANLMEISAQPSTSTTAQNI	not soluble
MTTYLIIGANRVGQLVARQLATESATVRLLHDGKETLPSDLATQVTELTGDLTQEATYTAALQDQPIIFSALTGMDVDLAFEALFDAQYHQRLTFQRFVMLSTAGVDQEVTGDLAYPGITDVAEYLKQQRYAAKLVDEAEFPYTILRPVTLADSPRRDPQIIKEGAAVPAGTVSRETVAQVAVSLLQAGGADYQSLAICLEHHHHHH	not soluble
MTVDSPILTDTLVVGGGQAGIAMSEHLTGQGVPHIVLERDRIAQRWRTGRWDSLVANGPAWHDRFPGLEFEGLDPDGFASKDAVADYLEAYARKFNAPIRTGVEVVRAERNGGRYGFTVETSAGTYEAQRIVVATGPFQRPVIPAIAPRDPALTQIHSADYRNPGQLPEGAVLVIGAGSSGVQIADELQRAGREVYLSVGPHDRPPRRYRGRDFCWWLGVLGLWDQETVQPGREHVTIAVSGTDGGRTIEFRALAHQGITLVGVTKSFRDGVVAFENDLAENVARGDANHFALLDAADAYIARNGLSLPDEPQARRVPPDPACMTEPILQLDLAAANVTSIIWATGYAAEYGWLNVDAFDANGKPRHQRGVSSEPGVYFLGLPWLSRRGSAFLWGVWHDAKHIAGHIAMQRNYLSYPDFGQSQQLEHHHHHH	soluble
MTVEWLAEQLKEHNIQLTETQKQQFQTYYRLLVEWNEKMNLTSITDEHDVYLKHFYDSIAPSFYFDFNQPISICDVGAGAGFPSIPLKIMFPQLKVTIVDSLNKRIQFLNHLASELQLQDVSFIHDRAETFGKGVYRESYDVVTARAVARLSVLSELCLPLVKKGGQFVALKSSKGEEELEEAKFAISVLGGNVTETHTFELPEDAGERQMFIIDKKRQTPKKYPRKPGTPNKTPLLEK	not soluble
MTVFTPRTDCEVAVIGAGPFGLAAASALKGAGVDALTLGGAMSFWRDHMPRGMRLRSPWHATYIGHTKGPLSLDSYAKVLGISPREPLLLENFVDYGLWIQAQAVPDLDTRKVDRVEKANGGFRLALADGNAIKARRVVVATGLMNQQLIPAVFDGIPRELVSHASEHTGYEAFRGKRVAVIGRGQSACESAVLLKRNGAEVDLVCHGDIHWLGYRALSGKQGWSLRDFLSERLASPSRVGPFPISWLVEVPGVVHRFPEPARAGLNRRSLGAGATGWLKPDFDGIEIRAGSRIISASARDNGIELRFEKDFASFDHVVLGTGYRIDIAKLGLFAPAMLAAIARREGLPLLSAGFESSIPGLHFVGASAVGSFGPLMRFTAGTPFAARTVARFIQRAKDRRYTAALEHHHHHH	not soluble
MTVLQLPNIPRITLLGTTALLFEAPGELDLAPQQRIWALADLSKNWPQVREAVPGMNNLMLTFETPPRDLSGLKTRLMEAWEHCQPLPLQGRIIELPVVYGGDGGPHMADVIAHTGLDIETIANLHCEPLYPVYALGSHPGYCYLGGMDLRLATPRRKVPVLDIGAGSVSIGGVQTGISASAGPSGWNTIGRTEMVFFDADQHPPALLQPGDQLRLRIERIIRLEHHHHHH	not soluble
MTVPLYKQIASLIEDSIVDGTLSIDQRVPSTNELAAFHRINPATARNGLTLLVEAGILYKKRGIGMFVSAQAPALIRERRDAAFAATYVAPLIDESIHLGFTRARIHALLDQVAESRGLYK	not soluble
MTVQEISRVIDGKRVIVKKPELLIPAGNLEKLKVAIHYGADAVYLGGQEFGLRSNAGNFTLEEMAEGVEFAKKYGAKIYVTTNIFAHNENMDGLEEYLKGIEKAGVTGIIVADPLIIETCKRVAPSVEVHLSTQQSLSNWKAAQYWKEEGLHRLVLAREASYEEMKEIKEKVDIEIEAFVHGAMCIAYSGRCTLSNHMTARDSNRGGCCQSCRWDYDLVQTVSQHKDAKELPLFQEEDAHFAMSPKDLNLILSIPKMIEIGIDSLKVEGRMKSIHYVATVATVYRKVIDAYCADPDNFEFKQEWLDELDKCANRDTAPAFFEGVPGHQEQMFGNHSKKTTYDFAGLVLDYNEETGIVTIEQRNHFKPGHEVEFFGPEIENFTQTVEKIWDEDGNELDAARHPLQIVKFKVDQPVYVNNMMRKSILQ	not soluble
MTVSPSYDAIVIGSGIGGLVTATQLVSKGLKVLVLERYLIPGGSAGYFEREGYRFDVGASMIFGFGDRGTTNLLTRALAAVGQALETLPDPVQIHYHLPGGLDPKVHREYEAFLQELIAKFPQEAQGIRRFYDECWQVFNCLNTMELLSLEEPRYLMRVFFQHPGACLGLVKYLPQNVGDIARRHIQDPDLLKFIDMECYCWSVVPADLTPMINAGMVFSDRHYGGINYPKGGVGQIAESLVAGLEKFGGKIRYGARVTKIIQENNQAIGVELANGEKIYGRRIVSNATRWDTFGALTGDQPLPGKEKRWRRNYQQSPSFLSLHLGVEADLLPEGTECHHILLEDWDDLEKEQGTIFVSIPTLLDPSLAPDGYHIIHTFTPSWLESWQNLSPQEYEAKKEADSGKLIDRLEAIFPGLDRALDYMEIGTPRSHRRFLGRQNGTYGPIPRRRLPGLLPMPFNRTAIPGLYCVGDSTFPGQGLNAVAFSGFACAHRLAVDLGVRLEHHHHHH	not soluble
MTVTFYSYPKCGTCQKAKKWFEANDVAYEMIHIVENPPSKEDLRNLHEKSELPLKKFFNTSGMRYRELGLKDKLKDASEDEMYELLASDGMLIKRPIVTDGTNVTLGFNEEQFESVWKKYQ	not soluble
